67 molecules from US20170037110A1 (IMMATICS BIOTECHNOLOGIES, published 2017) can be followed below.

This test deals with T1, HLA-A*02:01 (human).
T1 construct: monomers captured on streptavidin plates; also called MHC class I
Briefly: UV peptide exchange ELISA. In outline: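 Peptide-MHC complexes formed by UV-triggered exchange of a cleavable peptide for the test peptide, with stabilised complexes indicating binding. Exchange products diluted 100 fold onto streptavidin-coated wells, 1h at 37° C.; HRP anti-β2m (2 μg/ml), TMB, absorbance at 450 nm gives exchange yield.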
Background: ELISA stands for enzyme-linked immunosorbent assay.
ILVEADGAWVV showed a peptide exchange yield not below 75%.

The molecule YLLEQIKLIEV gave a peptide exchange yield not below 75%.

In turn, IMEDIILTL displayed a peptide exchange yield of 50 to 75%.

Molecule VTFGEKLLGV gave a peptide exchange yield of 20 to 50%.

On to VLLDVSAGQLLM, for which the peptide exchange yield was not below 75%.

On to SILDRDDIFV, for which the peptide exchange yield fell in the range of 50 to 75%.

For GLPRFGIEMV, the peptide exchange yield was 50 to 75%.

For LLAPTPYIIGV, the peptide exchange yield was 50 to 75%.

Molecule KLYEGIPVLL gave a peptide exchange yield not below 75%.

The molecule ALAELYEDEV showed a peptide exchange yield of 50 to 75%.

The molecule GLLEVMVNL came in with a peptide exchange yield of 50 to 75%.

Molecule NIFDLQIYV came in with a peptide exchange yield of 50 to 75%.

Consider FLSSVTYNL, for which the peptide exchange yield is 50 to 75%.

In turn, ALQDRVPLA had a peptide exchange yield of 50 to 75%.

Turning to YLLDDGTLVV, the peptide exchange yield was not below 75%.

Take RLLPPGAVVAV: the peptide exchange yield lay within 50 to 75%.

On to RLLGEEVVRVLQA, for which the peptide exchange yield fell in the range of 50 to 75%.

For VLIDEVESL, the peptide exchange yield lay in the range of 50 to 75%.

The molecule KLLNKIYEA displayed a peptide exchange yield not below 75%.

Molecule FLFPHSVLV returned a peptide exchange yield of 50 to 75%.

The molecule SLLDLETLSL showed a peptide exchange yield not below 75%.

In turn, FLIEPEHVNTV yielded a peptide exchange yield of 20 to 50%.

On to LLLPDQPPYHL, for which the peptide exchange yield lay within 50 to 75%.

FLQGYQLHL had a peptide exchange yield not below 75%.

Molecule ALWETEVYI gave a peptide exchange yield of 50 to 75%.

The molecule FQLDPSSGVLVTV gave a peptide exchange yield of 50 to 75%.

Molecule GLLDYPVGV came in with a peptide exchange yield of 50 to 75%.

The molecule ILIDSIYKV had a peptide exchange yield of 50 to 75%.

For ALLDPEVLSIFV, the peptide exchange yield fell in the range of 50 to 75%.

On to VLPPDTDPA, for which the peptide exchange yield lay in the range of 20 to 50%.

With ALLDQTKTLAESAL, the peptide exchange yield lay within 50 to 75%.

As for SLSELEALM, the peptide exchange yield was 50 to 75%.

For the molecule IMLKGDNITL, the peptide exchange yield was 50 to 75%.

Molecule TLLAEALVTV returned a peptide exchange yield of 50 to 75%.

The molecule KLLEGQVIQL yielded a peptide exchange yield of 50 to 75%.

On to VLLSIYPRV, for which the peptide exchange yield is 50 to 75%.

Molecule ALMYESEKVGV gave a peptide exchange yield of 50 to 75%.

SLLSVSHAL registered a peptide exchange yield of 50 to 75%.

YAAPGGLIGV had a peptide exchange yield of 20 to 50%.

Consider FLLAHGLGFLL, for which the peptide exchange yield is not below 75%.

YLVEDIQHI returned a peptide exchange yield of 50 to 75%.

For the molecule GILARIASV, the peptide exchange yield fell in the range of 50 to 75%.

With SLDSTLHAV, the peptide exchange yield fell in the range of 50 to 75%.

ALAAPDIVPAL: the peptide exchange yield lay within 50 to 75%.

In turn, VLMDRLPSLL showed a peptide exchange yield not below 75%.

Molecule YLYNEGLSV returned a peptide exchange yield of 50 to 75%.

KMIETDILQKV displayed a peptide exchange yield not below 75%.

For LLPDLEFYV, the peptide exchange yield is not below 75%.

Consider ALWKQLLEL, for which the peptide exchange yield lay within 50 to 75%.

For ILAPTVMMI, the peptide exchange yield was 50 to 75%.

YLLPSGGSVTL yielded a peptide exchange yield of 20 to 50%.

As to SLFIGEKAVLL, the peptide exchange yield was 50 to 75%.

YLLNDASLISV: the peptide exchange yield lay within 50 to 75%.

On to FLDENIGGVAV, for which the peptide exchange yield fell in the range of 50 to 75%.

Take FLFSQLQYL: the peptide exchange yield was 20 to 50%.

On to SLLELDGINL, for which the peptide exchange yield is 50 to 75%.

In turn, YLPAVFEEV registered a peptide exchange yield of 50 to 75%.

As for SAFPFPVTV, the peptide exchange yield is 50 to 75%.

RLYSGISGLEL came in with a peptide exchange yield of 50 to 75%.

Turning to SLFSSLEPQIQPV, the peptide exchange yield was in the range of 50 to 75%.

Turning to KLYEAVPQL, the peptide exchange yield fell in the range of 50 to 75%.

With VLFDSESIGIYV, the peptide exchange yield was 50 to 75%.

For the molecule FLYDNLVESL, the peptide exchange yield lay within 20 to 50%.

Take KMSELRVTL: the peptide exchange yield lay within 50 to 75%.

Molecule SLLEQGKEPWMV returned a peptide exchange yield of 50 to 75%.

With SLMELPRGLFL, the peptide exchange yield was not below 75%.

The molecule TLAELQPPVQL registered a peptide exchange yield of 50 to 75%.
